Columns and labels:
monoclonal antibody 7H1 = assay: ELISA competition: shed CA 125/O772P at 25-fold excess against 7H1 binding to plate-bound O772P 3-repeat
M11 = assay: flow cytometry competition (representative plot): shed CA 125/O772P against M11 binding to OVCAR-3 cells
monoclonal antibody 7C6 = assay: ELISA competition: shed CA 125/O772P at 25-fold excess against 7C6 binding to plate-bound O772P 3-repeat
monoclonal antibody 16H9 = assay: ELISA competition: shed CA 125/O772P at 25-fold excess against 16H9 binding to plate-bound O772P 3-repeat
monoclonal antibody 8G9 = assay: ELISA competition: shed CA 125/O772P at 25-fold excess against 8G9 binding to plate-bound O772P 3-repeat
monoclonal antibody 7A11 = assay: ELISA competition: shed CA 125/O772P at 25-fold excess against 7A11 binding to plate-bound O772P 3-repeat
monoclonal antibody 8B5 = assay: ELISA competition: shed CA 125/O772P at 25-fold excess against 8B5 binding to plate-bound O772P 3-repeat
monoclonal antibody 4E7 = assay: ELISA competition: shed CA 125/O772P at 25-fold excess against 4E7 binding to plate-bound O772P 3-repeat
[1] = molecular target: monoclonal antibody 725.1; assay: ELISA competition: shed CA 125/O772P at 25-fold excess against 725.1 binding to plate-bound O772P 3-repeat
monoclonal antibody 8A1 = assay: ELISA competition: shed CA 125/O772P at 25-fold excess against 8A1 binding to plate-bound O772P 3-repeat
monoclonal antibody 16C7 = assay: ELISA competition: shed CA 125/O772P at 25-fold excess against 16C7 binding to plate-bound O772P 3-repeat
[2] = molecular target: monoclonal antibody 446.1; assay: ELISA competition: shed CA 125/O772P at 25-fold excess against 446.1 binding to plate-bound O772P 3-repeat
[3] = molecular target: monoclonal antibody 117.1; assay: flow cytometry competition (representative plot): shed CA 125/O772P against 117.1 binding to OVCAR-3 cells
monoclonal antibody 7F10 = assay: ELISA competition: shed CA 125/O772P at 25-fold excess against 7F10 binding to plate-bound O772P 3-repeat
monoclonal antibody 7G10 = assay: ELISA competition: shed CA 125/O772P at 25-fold excess against 7G10 binding to plate-bound O772P 3-repeat
[4] = molecular target: monoclonal antibody 621.1; assay: ELISA competition: shed CA 125/O772P at 25-fold excess against 621.1 binding to plate-bound O772P 3-repeat
monoclonal antibody 15C9 = assay: ELISA competition: shed CA 125/O772P at 25-fold excess against 15C9 binding to plate-bound O772P 3-repeat
[5] = molecular target: monoclonal antibody 633.1; assay: ELISA competition: shed CA 125/O772P at 25-fold excess against 633.1 binding to plate-bound O772P 3-repeat
monoclonal antibody 8C3 = assay: ELISA competition: shed CA 125/O772P at 25-fold excess against 8C3 binding to plate-bound O772P 3-repeat
[6] = molecular target: monoclonal antibody 654.1; assay: ELISA competition: shed CA 125/O772P at 25-fold excess against 654.1 binding to plate-bound O772P 3-repeat
[7] = molecular target: monoclonal antibody 325.1; assay: ELISA competition: shed CA 125/O772P at 25-fold excess against 325.1 binding to plate-bound O772P 3-repeat
monoclonal antibody 8E3 = assay: ELISA competition: shed CA 125/O772P at 25-fold excess against 8E3 binding to plate-bound O772P 3-repeat
[8] = molecular target: monoclonal antibody 117.1; assay: ELISA competition: shed CA 125/O772P at 25-fold w/w excess against antibody binding to plate-bound O772P 3-repeat
OC125 = assay: as above
[9] = molecular target: monoclonal antibody 501.1; assay: as above
[10] = molecular target: monoclonal antibody 368.1; assay: as above
[11] = molecular target: monoclonal antibody 776.1; assay: as above
Chain of monoclonal antibody 776.1 (chain, as listed by the source, chain 1 of 2): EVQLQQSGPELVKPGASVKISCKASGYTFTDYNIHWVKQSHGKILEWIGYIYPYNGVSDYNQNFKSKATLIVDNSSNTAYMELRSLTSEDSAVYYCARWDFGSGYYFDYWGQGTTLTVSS
Chain of monoclonal antibody 776.1 (chain, as listed by the source, chain 2 of 2): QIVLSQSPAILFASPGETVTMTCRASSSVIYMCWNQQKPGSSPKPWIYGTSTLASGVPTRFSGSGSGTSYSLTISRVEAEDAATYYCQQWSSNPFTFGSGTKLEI

Chain of monoclonal antibody 117.1 (chain, as listed by the source, chain 1 of 2): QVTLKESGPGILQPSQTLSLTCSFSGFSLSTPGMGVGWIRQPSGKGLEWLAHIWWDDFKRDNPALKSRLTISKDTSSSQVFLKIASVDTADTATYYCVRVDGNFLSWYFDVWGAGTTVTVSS
Chain of monoclonal antibody 117.1 (chain, as listed by the source, chain 2 of 2): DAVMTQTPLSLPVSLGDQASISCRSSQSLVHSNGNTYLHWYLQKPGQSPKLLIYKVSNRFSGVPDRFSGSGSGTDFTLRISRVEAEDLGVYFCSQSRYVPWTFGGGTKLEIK
Chain of monoclonal antibody 725.1 (chain, as listed by the source, chain 1 of 2): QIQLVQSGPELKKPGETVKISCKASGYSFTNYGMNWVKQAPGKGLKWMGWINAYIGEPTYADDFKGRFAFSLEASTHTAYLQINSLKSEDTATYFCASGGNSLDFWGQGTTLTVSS
Chain of monoclonal antibody 725.1 (chain, as listed by the source, chain 2 of 2): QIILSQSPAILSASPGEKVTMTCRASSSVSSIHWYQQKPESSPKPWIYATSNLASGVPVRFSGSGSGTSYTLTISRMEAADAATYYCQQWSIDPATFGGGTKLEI
Chain of OC125 (chain, as listed by the source, chain 1 of 2): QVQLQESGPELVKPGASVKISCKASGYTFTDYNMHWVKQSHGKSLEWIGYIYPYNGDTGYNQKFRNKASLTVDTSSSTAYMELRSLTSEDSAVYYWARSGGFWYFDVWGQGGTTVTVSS
Chain of OC125 (chain, as listed by the source, chain 2 of 2): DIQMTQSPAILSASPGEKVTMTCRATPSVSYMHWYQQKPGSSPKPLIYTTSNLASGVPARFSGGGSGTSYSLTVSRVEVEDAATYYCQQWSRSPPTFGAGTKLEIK
Chain of monoclonal antibody 16H9 (chain, as listed by the source, chain 1 of 2): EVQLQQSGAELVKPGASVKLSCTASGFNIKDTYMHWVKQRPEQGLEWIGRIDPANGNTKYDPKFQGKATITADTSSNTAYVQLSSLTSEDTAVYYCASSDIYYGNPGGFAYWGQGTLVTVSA
Chain of monoclonal antibody 16H9 (chain, as listed by the source, chain 2 of 2): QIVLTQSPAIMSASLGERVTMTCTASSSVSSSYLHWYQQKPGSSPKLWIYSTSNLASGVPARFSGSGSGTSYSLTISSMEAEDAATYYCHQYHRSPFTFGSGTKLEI
Chain of monoclonal antibody 501.1 (chain, as listed by the source, chain 1 of 2): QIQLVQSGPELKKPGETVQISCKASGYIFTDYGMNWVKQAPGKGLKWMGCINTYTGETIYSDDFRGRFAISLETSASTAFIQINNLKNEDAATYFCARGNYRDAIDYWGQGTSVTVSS
Chain of monoclonal antibody 501.1 (chain, as listed by the source, chain 2 of 2): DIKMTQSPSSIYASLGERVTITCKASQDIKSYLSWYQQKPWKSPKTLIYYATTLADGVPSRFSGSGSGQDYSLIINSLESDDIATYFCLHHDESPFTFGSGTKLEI
Chain of monoclonal antibody 368.1 (chain, as listed by the source, chain 1 of 2): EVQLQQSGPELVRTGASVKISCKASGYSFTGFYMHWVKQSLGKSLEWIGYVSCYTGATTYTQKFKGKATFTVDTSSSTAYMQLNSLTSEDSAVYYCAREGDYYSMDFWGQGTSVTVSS
Chain of monoclonal antibody 368.1 (chain, as listed by the source, chain 2 of 2): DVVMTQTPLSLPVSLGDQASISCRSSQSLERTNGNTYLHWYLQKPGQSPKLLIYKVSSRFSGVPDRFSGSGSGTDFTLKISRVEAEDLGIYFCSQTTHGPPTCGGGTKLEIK

## shed CA 125/O772P polypeptide, Q8WXI7 1-14401
Monoclonal antibody 7H1
  % inh. binding: 4%
M11
  IC50: 3 µg/mL
Monoclonal antibody 7C6
  % inh. binding: 2%
Monoclonal antibody 16H9
  % inh. binding: 0%
Monoclonal antibody 8G9
  % inh. binding: 7%
Monoclonal antibody 7A11
  % inh. binding: 5%
Monoclonal antibody 8B5
  % inh. binding: 6%
Monoclonal antibody 4E7
  % inh. binding: 7%
[1]
  % inh. binding: 7%
Monoclonal antibody 8A1
  % inh. binding: 8%
Monoclonal antibody 16C7
  % inh. binding: 3%
[2]
  % inh. binding: 7%
[3]
  IC50: > 1000 µg/mL
Monoclonal antibody 7F10
  % inh. binding: 6%
Monoclonal antibody 7G10
  % inh. binding: 3%
[4]
  % inh. binding: 2%
Monoclonal antibody 15C9
  % inh. binding: 5%
[5]
  % inh. binding: 7%
Monoclonal antibody 8C3
  % inh. binding: 5%
[6]
  % inh. binding: 9%
[7]
  % inh. binding: 2%
Monoclonal antibody 8E3
  % inh. binding: 4%
[8]
  percent inhibition of binding: 11%
OC125
  percent inhibition of binding: 95%
[9]
  percent inhibition of binding: 15%
[10]
  percent inhibition of binding: 0%
[11]
  percent inhibition of binding: 17%
